Patent US20160082083A1 (NATIONAL RESEARCH COUNCIL OF CANADA, published 2016)

target: cathepsin B (human, UniProt P07858 80-333); test: cell-based or functional assay

Row | inhibition of intracellular cathepsin B activity (Magic Red) in U87MG cells, overnight incubation with 20 nM protein | inhibition of secreted cathepsin B activity in U87MG CM, overnight incubation with 20 nM protein | Binder
1 | ~50% |  | IGFBP-5 C-terminal fragment (aas 177-272) (other) IASIISAPEMRQESEQGPCRRHMEASLQELKASPRMVPRAVYLPNCDRKGFYKRKQCKPSRGRKRGICWCVDKYGMKLPGMEYVDGDFQCHTFDSSNVEDPWSHPQFEKTGHHHHHHHHGGQ
2 | ~50% |  | IGFBP-2 (from R&D systems) (other) MLPRVGCPALPLPPPPLLPLLPLLLLLLGASGGGGGARAEVLFRCPPCTPERLAACGPPPVAPPAAVAAVAGGARMPCAELVREPGCGCCSVCARLEGEACGVYTPRCGQGLRCYPHPGSELPLQALVMGEGTCEKRRDAEYGASPEQVADNGDDHSEGGLVENHVDSTMNMLGGGGSAGRKPLKSGMKELAVFREKVTEQHRQMGKGGKHHLGLEEPKKLRPPPARTPCQQELDQVLERISTMRLPDERGPLEHLYSLHIPNCDKHGLYNLKQCKMSLNGQRGECWCVNPNTGKLIQGAPTIRGDPECHLFYNEQQEARGVHTQRMQ
3 |  | ~60% | CIBP6 (aas 151-240) (other) IARNSAGVQDTEMGPCRRHLDSVLQQLQTEVYRGAQTLYVPNCDHRGFYRKRQCRSSQGQRRGPCWCVDRMGKSLPGSPDGNGSSSCPTGSSGSSTGHHHHHHHHG
4 | ~50% | ~70% | IGFBP-2 C-terminal fragment (aas 207-328 of SEQ ID NO: 3) (other) IASKGGKHHLGLEEPKKLRPPPARTPCQQELDQVLERISTMRLPDERGPLEHLYSLHIPNCDKHGLYNLKQCKMSLNGQRGECWCVNPNTGKLIQGAPTIRGDPECHLFYNEQQEARGVHTQRMQDPWSHPQFEKTGHHHHHHHHGGQ
5 |  | ~60% | IGFBP-6 (from R&D systems) (other) RCPGCGQGVQAGCPGGCVEEEDGGSPAEGCAEAEGCLRREGQECGVYTPNCAPGLQCHPPKDDEAPLRALLLGRGRCLPARAPAVAEENPKESKPQAGTARPQDVNRRDQQRNPGTSTTPSQPNSAGVQDTEMGPCRRHLDSVLQQLQTEVYRGAQTLYVPNCDHRGFYRKRQCRSSQGQRRGPCWCVDRMGKSLPGSPDGNGSSSCPTGSSG
6 | ~50% | ~60% | IGFBP-2 full-length protein (aas 1-328), produced at BRI-NRC (other) MLPRVGCPALPLPPPPLLPLLPLLLLLLGASGGGGGARAEVLFRCPPCTPERLAACGPPPVAPPAAVAAVAGGARMPCAELVREPGCGCCSVCARLEGEACGVYTPRCGQGLRCYPHPGSELPLQALVMGEGTCEKRRDAEYGASPEQVADNGDDHSEGGLVENHVDSTMNMLGGGGSAGRKPLKSGMKELAVFREKVTEQHRQMGKGGKHHLGLEEPKKLRPPPARTPCQQELDQVLERISTMRLPDERGPLEHLYSLHIPNCDKHGLYNLKQCKMSLNGQRGECWCVNPNTGKLIQGAPTIRGDPECHLFYNEQQEARGVHTQRMQGSGWSHPQFEKTGHHHHHHHHGGQ
